Experimental data: patent US20250075002A1
One block for each substance: values may come before it.

Experiments:
[1] = target: MUC1 as expressed on normal activated human T cells (human) (UniProt P15941); assay: FACS, PHA-L-activated human PBMC, live αβTCR+ gate, Donor 191271003C; antibody 10 µg/mL by paragraph 182
[2] = target: MUC1 as expressed on normal activated human T cells (human) (UniProt P15941); assay: FACS, PHA-L-activated human PBMC, live αβTCR+ gate, Donor 191271715C; antibody 10 µg/mL by paragraph 182
[3] = target: MUC1 as expressed on normal activated human T cells (human) (UniProt P15941); assay: FACS, PHA-L-activated human PBMC, live αβTCR+ gate, Donor 3009223; antibody 10 µg/mL by paragraph 182
[4] = target: MUC1 as expressed on normal activated human T cells (human) (UniProt P15941); assay: FACS, PHA-L-activated human PBMC, live αβTCR+ gate, Donor 3011029; antibody 10 µg/mL by paragraph 182
[5] = target: MUC1 as expressed on normal activated human T cells (human) (UniProt P15941); assay: FACS, PHA-L-activated human PBMC, live αβTCR+ gate, Donor 191180405C; antibody 10 µg/mL by paragraph 182
[6] = target: MUC1 as expressed on normal activated human T cells (human) (UniProt P15941); assay: FACS, PHA-L-activated human PBMC, live αβTCR+ gate, Donor 190980805C; antibody 10 µg/mL by paragraph 182
[7] = target: human CD16B (NA1) on NK92mi cells (human) (UniProt O75015); assay: flow cytometry on NK92mi/CD16B (NA1) cells; control
Sequence of human CD16B (NA1) on NK92mi cells (human) (O75015 other isoform, or with tags, fused parts or gaps limits assumed): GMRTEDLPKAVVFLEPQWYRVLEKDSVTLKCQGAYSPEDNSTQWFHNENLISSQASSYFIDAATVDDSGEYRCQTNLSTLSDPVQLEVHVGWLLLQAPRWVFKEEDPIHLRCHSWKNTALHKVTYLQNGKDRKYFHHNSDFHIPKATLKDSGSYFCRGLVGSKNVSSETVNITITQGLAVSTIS

[8] = target: human CD16B (NA2) on NK92mi cells (human) (UniProt O75015); assay: flow cytometry on NK92mi/CD16B (NA2) cells; control
Sequence of human CD16B (NA2) on NK92mi cells (human) (O75015 17-200 N65S limits assumed): as the sequence (O75015 other isoform, or with tags, fused parts or gaps limits assumed) above, with R20S, N49S, D66N, V90I counted along it

[9] = target: human CD16A (V158) on NK92mi cells (human) (UniProt P08637); assay: flow cytometry on NK92mi/CD16A cells (V158 by paragraph 201); control
Sequence of human CD16A (V158) on NK92mi cells (human) (P08637 17-254 F176V limits assumed): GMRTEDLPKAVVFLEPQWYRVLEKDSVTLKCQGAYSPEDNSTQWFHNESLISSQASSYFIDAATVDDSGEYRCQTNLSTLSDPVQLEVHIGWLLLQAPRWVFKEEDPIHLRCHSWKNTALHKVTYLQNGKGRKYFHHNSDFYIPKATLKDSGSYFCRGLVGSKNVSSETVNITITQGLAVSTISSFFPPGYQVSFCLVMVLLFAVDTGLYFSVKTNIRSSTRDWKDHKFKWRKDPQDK

[10] = target: MUC1 as expressed on normal activated human T cells (human) (UniProt P15941); assay: FACS, PHA-L-activated human PBMC, live αβTCR+ gate, Donor 191180405C; concentration of the isotype control not told
[11] = target: MUC1 as expressed on normal activated human T cells (human) (UniProt P15941); assay: FACS, PHA-L-activated human PBMC, live αβTCR+ gate, Donor 191271715C; concentration of the isotype control not told
[12] = target: MUC1 as expressed on normal activated human T cells (human) (UniProt P15941); assay: FACS, PHA-L-activated human PBMC, live αβTCR+ gate, Donor 3009223; concentration of the isotype control not told
[13] = target: MUC1 as expressed on normal activated human T cells (human) (UniProt P15941); assay: as above; remark: listed apart in the source
[14] = target: MUC1 as expressed on normal activated human T cells (human) (UniProt P15941); assay: FACS, PHA-L-activated human PBMC, live αβTCR+ gate, Donor 191271715C; concentration of the isotype control not told; remark: listed apart in the source
[15] = target: MUC1 as expressed on normal activated human T cells (human) (UniProt P15941); assay: FACS, PHA-L-activated human PBMC, live αβTCR+ gate, Donor 190980805C; concentration of the isotype control not told
[16] = target: MUC1 as expressed on normal activated human T cells (human) (UniProt P15941); assay: FACS, PHA-L-activated human PBMC, live αβTCR+ gate, Donor 191180405C; concentration of the isotype control not told; remark: listed apart in the source
[17] = target: MUC1 as expressed on normal activated human T cells (human) (UniProt P15941); assay: FACS, PHA-L-activated human PBMC, live αβTCR+ gate, Donor 190980805C; concentration of the isotype control not told; remark: listed apart in the source
[18] = target: MUC1 as expressed on normal activated human T cells (human) (UniProt P15941); assay: FACS, PHA-L-activated human PBMC, live αβTCR+ gate, Donor 3011029; concentration of the isotype control not told
[19] = target: MUC1 as expressed on normal activated human T cells (human) (UniProt P15941); assay: FACS, PHA-L-activated human PBMC, live αβTCR+ gate, Donor 191271003C; concentration of the isotype control not told
[20] = target: MUC1 as expressed on normal activated human T cells (human) (UniProt P15941); assay: FACS, PHA-L-activated human PBMC, live αβTCR+ gate, Donor 3011029; concentration of the isotype control not told; remark: listed apart in the source
[21] = target: MUC1 as expressed on normal activated human T cells (human) (UniProt P15941); assay: FACS, PHA-L-activated human PBMC, live αβTCR+ gate, Donor 191271003C; concentration of the isotype control not told; remark: listed apart in the source

Sequence of MUC1 as expressed on normal activated human T cells (human) (P15941 24-1255): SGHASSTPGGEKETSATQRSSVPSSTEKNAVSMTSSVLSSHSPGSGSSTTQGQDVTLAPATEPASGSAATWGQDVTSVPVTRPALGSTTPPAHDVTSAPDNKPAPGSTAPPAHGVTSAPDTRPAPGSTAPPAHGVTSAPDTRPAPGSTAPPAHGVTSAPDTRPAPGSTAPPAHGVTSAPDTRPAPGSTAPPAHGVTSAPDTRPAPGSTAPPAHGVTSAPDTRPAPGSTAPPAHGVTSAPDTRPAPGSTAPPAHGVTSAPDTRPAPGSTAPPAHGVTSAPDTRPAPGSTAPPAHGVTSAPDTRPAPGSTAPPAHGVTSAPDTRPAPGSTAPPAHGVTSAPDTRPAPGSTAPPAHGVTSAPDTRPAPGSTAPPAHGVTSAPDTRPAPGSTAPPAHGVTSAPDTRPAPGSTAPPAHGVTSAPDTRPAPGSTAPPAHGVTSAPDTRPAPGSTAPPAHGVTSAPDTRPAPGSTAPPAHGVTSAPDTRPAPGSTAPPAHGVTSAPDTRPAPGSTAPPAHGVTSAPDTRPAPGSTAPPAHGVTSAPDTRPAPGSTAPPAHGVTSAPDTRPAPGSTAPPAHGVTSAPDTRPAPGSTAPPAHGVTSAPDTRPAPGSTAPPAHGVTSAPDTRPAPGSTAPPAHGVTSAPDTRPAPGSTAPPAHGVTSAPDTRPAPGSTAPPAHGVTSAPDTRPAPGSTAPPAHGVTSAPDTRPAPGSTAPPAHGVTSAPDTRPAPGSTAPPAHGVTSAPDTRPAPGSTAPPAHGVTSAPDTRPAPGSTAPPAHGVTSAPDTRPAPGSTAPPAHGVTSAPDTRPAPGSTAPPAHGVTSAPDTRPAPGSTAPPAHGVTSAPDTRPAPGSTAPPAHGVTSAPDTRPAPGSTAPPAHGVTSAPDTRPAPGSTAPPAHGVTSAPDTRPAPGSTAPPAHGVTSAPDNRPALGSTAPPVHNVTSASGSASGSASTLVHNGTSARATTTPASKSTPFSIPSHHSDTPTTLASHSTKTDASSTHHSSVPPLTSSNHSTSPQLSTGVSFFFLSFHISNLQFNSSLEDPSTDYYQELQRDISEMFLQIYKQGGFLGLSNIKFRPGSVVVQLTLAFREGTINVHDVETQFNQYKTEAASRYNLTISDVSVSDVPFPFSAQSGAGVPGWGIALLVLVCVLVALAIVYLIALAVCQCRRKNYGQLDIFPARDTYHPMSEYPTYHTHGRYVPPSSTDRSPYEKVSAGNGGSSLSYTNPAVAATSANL

percent of αβTCR+ cells in the MUC1-positive gate (dashed box) [1]: 16.9%
percent of αβTCR+ cells in the MUC1-positive gate (dashed box) [2]: 16.5%
Substance: 16A (Biolegend, cat. #355608) (antibody)

percent of αβTCR+ cells in the MUC1-positive gate (dashed box) [3]: 10%
percent of αβTCR+ cells in the MUC1-positive gate (dashed box) [4]: 23.2%
percent of αβTCR+ cells in the MUC1-positive gate (dashed box) [5]: 28.1%
percent of αβTCR+ cells in the MUC1-positive gate (dashed box) [6]: 28.2%
Substance: HMFG1 (Abcam, cat. #ab215670) (antibody)

EC50 [7]: 10.3 µg/mL
EMAX [7]: 7.46
EC50 [8]: 0.314 µg/mL
EMAX [8]: 7.66
EC50 [9]: 0.0112 µg/mL
EMAX [9]: 7.55
Substance: Human IgG (control column of Tables 10-12) (antibody)

percent of αβTCR+ cells in the MUC1-positive gate (dashed box) [10]: 0.29%
percent of αβTCR+ cells in the MUC1-positive gate (dashed box) [11]: 0.04%
percent of αβTCR+ cells in the MUC1-positive gate (dashed box) [12]: 0.05%
percent of αβTCR+ cells in the MUC1-positive gate (dashed box) [13]: 1.17%
percent of αβTCR+ cells in the MUC1-positive gate (dashed box) [14]: 1.04%
percent of αβTCR+ cells in the MUC1-positive gate (dashed box) [15]: 0.15%
percent of αβTCR+ cells in the MUC1-positive gate (dashed box) [16]: 2.49%
percent of αβTCR+ cells in the MUC1-positive gate (dashed box) [17]: 1.86%
percent of αβTCR+ cells in the MUC1-positive gate (dashed box) [18]: 0.36%
percent of αβTCR+ cells in the MUC1-positive gate (dashed box) [19]: 0.91%
percent of αβTCR+ cells in the MUC1-positive gate (dashed box) [20]: 0.26%
percent of αβTCR+ cells in the MUC1-positive gate (dashed box) [21]: 0.11%
Substance: Isotype (antibody)
